This assay addresses human FcγRIIA (R131 variant) expressed on Jurkat cells (UniProt P12318). In words: FLIM. To be noted: Jurkat cells co-expressing FcγRIIA and Mac-1; donor anti-FcγRIIA IV.3 AF488 + acceptor anti-Mac-1 (CD11b) ICRF44 AF568; n = 3 experiments.
UniProt P12318, sequence (P12318 34-217, change not shown): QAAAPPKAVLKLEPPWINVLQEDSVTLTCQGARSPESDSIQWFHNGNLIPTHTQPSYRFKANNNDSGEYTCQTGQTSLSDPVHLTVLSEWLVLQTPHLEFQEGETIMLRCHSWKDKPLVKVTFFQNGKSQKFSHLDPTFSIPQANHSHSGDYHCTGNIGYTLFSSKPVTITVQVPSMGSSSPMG

As to “human Mac-1 (CD11b/CD18), wild type, expressed on Jurkat cells (from UniProt P11215;P05107) E253-R261 (… replaced with … of CD11a)”, the other: FcγRIIA fluorescence lifetime tm (donor + acceptor) is 1830 ps.

Source of the values: publication PMC6265255.
